Here are results for eleven molecules from US20110262439A1 (Amgen, published 2011).

In assay [1] the target is T1, mutated murine c-MET antigen with human membrane-distal epitopes (extracellular domains fused to a truncated … (murine/human chimera)).
T1 construct: also called cMET-8
T1 chain: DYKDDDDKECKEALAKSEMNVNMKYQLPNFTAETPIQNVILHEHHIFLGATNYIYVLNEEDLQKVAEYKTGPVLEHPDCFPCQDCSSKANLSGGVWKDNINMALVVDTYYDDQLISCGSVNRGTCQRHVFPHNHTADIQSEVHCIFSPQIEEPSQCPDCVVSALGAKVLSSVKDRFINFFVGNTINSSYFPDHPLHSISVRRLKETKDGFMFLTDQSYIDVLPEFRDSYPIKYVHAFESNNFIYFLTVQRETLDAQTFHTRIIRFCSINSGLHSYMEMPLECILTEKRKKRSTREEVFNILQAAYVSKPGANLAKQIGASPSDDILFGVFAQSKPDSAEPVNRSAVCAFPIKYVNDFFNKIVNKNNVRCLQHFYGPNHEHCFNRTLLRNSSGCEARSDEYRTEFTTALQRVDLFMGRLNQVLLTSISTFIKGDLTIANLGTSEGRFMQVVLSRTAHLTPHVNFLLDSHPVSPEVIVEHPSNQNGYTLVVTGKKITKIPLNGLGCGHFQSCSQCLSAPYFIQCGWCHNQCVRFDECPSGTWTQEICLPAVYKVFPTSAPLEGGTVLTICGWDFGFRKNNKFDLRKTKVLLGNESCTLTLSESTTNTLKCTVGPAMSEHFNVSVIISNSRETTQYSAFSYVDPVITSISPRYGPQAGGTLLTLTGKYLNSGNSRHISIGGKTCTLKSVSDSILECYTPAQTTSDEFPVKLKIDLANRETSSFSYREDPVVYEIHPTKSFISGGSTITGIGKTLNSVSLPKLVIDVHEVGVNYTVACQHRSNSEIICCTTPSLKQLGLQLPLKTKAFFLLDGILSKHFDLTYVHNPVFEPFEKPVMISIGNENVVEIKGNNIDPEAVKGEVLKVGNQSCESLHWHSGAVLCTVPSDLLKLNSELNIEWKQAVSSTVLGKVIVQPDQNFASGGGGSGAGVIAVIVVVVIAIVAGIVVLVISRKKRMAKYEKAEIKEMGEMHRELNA
In words: FACS, CHO transfectants, periplasmic preparation.

Assay [2] concerns the target T2, mutated human c-MET antigen with murine membrane-distal epitopes (extracellular domains fused to a truncated … (human/murine chimera)).
T2 construct: also called cMET-10
T2 chain: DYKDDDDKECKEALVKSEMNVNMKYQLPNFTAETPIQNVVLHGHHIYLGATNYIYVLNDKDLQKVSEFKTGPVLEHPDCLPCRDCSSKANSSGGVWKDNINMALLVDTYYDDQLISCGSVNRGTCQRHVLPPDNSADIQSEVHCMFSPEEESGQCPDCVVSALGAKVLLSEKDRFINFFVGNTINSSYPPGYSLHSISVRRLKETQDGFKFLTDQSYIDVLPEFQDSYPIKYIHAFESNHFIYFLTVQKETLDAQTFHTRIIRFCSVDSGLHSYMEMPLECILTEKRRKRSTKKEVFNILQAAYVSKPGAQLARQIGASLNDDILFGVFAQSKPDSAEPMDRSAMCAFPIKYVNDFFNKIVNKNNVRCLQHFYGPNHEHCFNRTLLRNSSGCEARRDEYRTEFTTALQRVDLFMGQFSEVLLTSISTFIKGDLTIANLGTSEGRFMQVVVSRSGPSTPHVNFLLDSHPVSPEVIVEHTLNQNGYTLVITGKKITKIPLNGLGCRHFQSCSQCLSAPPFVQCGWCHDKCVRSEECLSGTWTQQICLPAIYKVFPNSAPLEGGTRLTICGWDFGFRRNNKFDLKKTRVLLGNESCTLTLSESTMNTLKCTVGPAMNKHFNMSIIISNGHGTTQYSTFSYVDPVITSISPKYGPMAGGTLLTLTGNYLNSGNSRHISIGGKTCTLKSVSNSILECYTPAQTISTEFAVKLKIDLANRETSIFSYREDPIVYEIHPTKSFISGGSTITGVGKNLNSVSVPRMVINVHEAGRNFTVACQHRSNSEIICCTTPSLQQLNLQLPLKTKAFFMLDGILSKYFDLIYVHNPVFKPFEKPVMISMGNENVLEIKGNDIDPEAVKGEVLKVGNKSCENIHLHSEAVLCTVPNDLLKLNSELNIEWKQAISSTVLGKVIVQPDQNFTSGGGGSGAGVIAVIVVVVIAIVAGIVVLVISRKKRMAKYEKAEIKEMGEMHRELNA
In words: FACS, CHO transfectants, periplasmic preparation.

B1: ME06E10HL (scFv)
scFv: EVQLLEQSGADLVRPGTSVKLSCKAAGYTFSRYWISWIRQRPGHGLEWIGEIYPGGGYGNYNENFKDKVTLTADTSSSTAYMQLSSLTSEDSAIYYCARSGYDYGSKYDYYGLDYWGQGTTVTVSSGGGGSGGGGSGGGGSELVMTQSPSSLSASLGERVSLTCRASQEISGYLSWLQQKPDGTIKRLIYAASTLDSGVPKRFSGSRSGSDYSLTISSLESEDFADYYCLQYASSPYTFGGGTKLEIKTGDYKDDDDKHHHHHH
notes: murine anti-c-MET scFv; E. coli periplasmic preparation
As for B1, the results for the binding result in assay [1] and in assay [2] were “no binding” and “binds”, respectively.

B2: ME06D2HL (scFv)
scFv: EVQLLEQSGADLVRPGTSVKLSCKAAGYTFSRYWISWIRQRPGHGLEWIGEIYPGGGYGNYNENFKDKVTLTADTSSSTAYMQLSSLTSEDSAIYYCARSGYDYGSKYDYYGLDYWGQGTTVTVSSGGGGSGGGGSGGGGSELVMTQSPSSMYASLGERVTITCKASQDINSYLSWFQQKPGKSPKTLIYRANRLVDGVPSRFSGSGSGQDYSLTISSLEYEDMGIYYCLQYDAFPPTFGAGTKLEIKTGDYKDDDDKHHHHHH
notes: as for B1
Turning to B2, the binding result in assay [1] is recorded as “no binding”; in assay [2], “binds”.

B3: ME05F6HL (scFv)
scFv: EVQLLEQSGAEVVRPGTSVKMSCKAAGYTFTKYWIGWVKQRPGHGLEWIGDIHPGGGFANYNEKFKGKATLTADTSSSTAYMQLSRLTSDDSAIYYCARSGYDYGSSYDYHGMDYWGQGTTVTVSSGGGGSGGGGSGGGGSELVMTQSPSSLSASLGERVSLTCRASQEISGYLSWLQQKPDGTIKRLIYAASTLDSGVPKRFSGSRSGSDYSLTISSLESEDFADYYCLQYASYPPTFGGGTKLEIKTGDYKDDDDKHHHHHH
notes: as for B1
As to B3, the binding result in assay [1] was “no binding”; in assay [2], “binds”.

B4: ME06D1HL (scFv)
scFv: EVQLLEQSGAEVVRPGTSVKMSCKAAGYTFTKYWIGWVKQRPGHGLEWIGDIHPGGGFANYNEKFKGKATLTADTSSSTAYMQLSRLTSDDSAIYYCARSGYDYGSSYDYHGMDYWGQGTTVTVSSGGGGSGGGGSGGGGSELVMTQSPSSLTVTAGEKVTMSCKSSQSLLNSGNQKNYLAWYQQKPGQPPKLLIYGASTRESGVPDRFTGSGSGTDFTLTISSVQAEDLADYFCQQHYSTPYTFGGGTKLEIKTGDYKDDDDKHHHHHH
notes: as for B1
Turning to B4, the figures for the binding result in assay [1] and in assay [2] were “no binding” and “binds”, respectively.

B5: ME06C7HL (scFv)
scFv: EVQLLEQSGAEVVRPGTSVKMSCKAAGYTFTKYWIGWVKQRPGHGLEWIGDIHPGGGFANYNEKFKGKATLTADTSSSTAYMQLSRLTSDDSAIYYCARSGYDYGSSYDYHGMDYWGQGTTVTVSSGGGGSGGGGSGGGGSELQMTQSPTSLAVSLGQRATISCRASQTVYYDGNNYMNWYQHKPGQPPKLLIYATSNLESGIPARFSGSGSGTDFTLNIHPVEAEDAATYYCQQSYEDPYTFGGGTKLEIKTGDYKDDDDKHHHHHH
notes: as for B1
With B5, the binding result in assay [1] was “no binding”; in assay [2], “binds”.

B6: ME06F2HL (scFv)
scFv: EVQLLEQSGAELMKPGASVKISCKATGYTFSNYWIGWVKQRPGHGLEWIGDIYPGGSYTNYNEKFKGKVTLTADTSSRTAYMQLSSLTFEDSAIYYCARSGYDYASDYDYHGMDYWGQGTTVTVSSGGGGSGGGGSGGGGSELVLTQSPSSMSASLGDRITITCQATQDIVKNLNWYQQKPGKPPSFLIYYATELAEGVPSRFSGSGSGSDYSLTISNLESEDFADYYCLQFYEFPYTFGGGTKLEIKTGDYKDDDDKHHHHHH
notes: as for B1
Consider B6, for which the binding result in assay [1] was “no binding”; in assay [2], “binds”.

B7: ME75H6HL (scFv)
scFv: EVQLLEQSGAELVRPGTSVKMSCKAAGYTFTKYWIGWVKQRPGHGLEWIGDIHPGGGYANYNEKFKGKATLTADTSSSTAYMQLSRLTSDDSAIYYCARSGYDYGSSYDYHGMDFWGQGTTVTVSSGGGGSGGGGSGGGGSELQMTQSPASLSASVGEPVTFTCRASENIYSYLAWYQQKQGKSPQLLIYGATNLADGMSSRFSGSGSGRQYSLKISSLHPDDVATYYCQNVLSTPYTFGGGTKLEIKTGDYKDDDDKHHHHHH
notes: as for B1
Regarding B7, the results for the binding result in assay [1] and in assay [2] were “no binding” and “binds”, respectively.

B8: ME06B7HL (scFv)
scFv: EVQLLEQSGAELVRPGTSVKISCKATGYTFTTYWLGWVKQRPGHGLEWIGEIHPGGGYTNYNEKFKGKATLTADTSSSTAYMQLSRLTSDDSAIYYCARSGYDYGSSYDYYGMDYWGQGTTVTVSSGGGGSGGGGSGGGGSELVMTQSPSSLSASLGERVSLTCRASQDIGSSLNWLQQEPDGTIKRLIYATSSLDSGVPKRFSGSRSGSDYSLTISSLESEDFVDYYCLQYASSPYTFGGGTKLEIKTGDYKDDDDKHHHHHH
notes: as for B1
As for B8, the values for the binding result in assay [1] and in assay [2] were “no binding” and “binds”, respectively.

B9: ME05B7HL (scFv)
scFv: EVQLLEQSGAELVRPGTSVKISCKTTGYTFGYYWISWLKQRPGHGLEWIGDIYPGGGYTNYHEKFKGKVTLTADTSSRTAYMQLSSLTFEDSAIYYCARSGYDYGSDYDYHGMDYWGQGTTVTVSSGGGGSGGGGSGGGGSELVMTQTPSSLSASLGDRVTISCRASQGISNYLNWYQQKPDGSVKLLIYYTSRLHSGVPSRFSGSGSGTDYSLTISNLDQEDIATYFCQQGNTLPWTFGGGTKLEIKTGDYKDDDDKHHHHHH
notes: as for B1
On to B9, for which the results for the binding result in assay [1] and in assay [2] were “no binding” and “binds”, respectively.

B10: ME06C6HL (scFv)
scFv: EVQLLEQSGAELVRPGTSVKIPCKATGYTFSYYWIGWVKQRPGHGLEWIGDIYPGGGYSNYNEKFKGKATLTADTSSSTAYMQLSGLTSEDSAIYYCARSGYDYGSDYDYHGLDYWGQGTTVTVSSGGGGSGGGGSGGGGSELVLTQSPASLAVSLGQRATISCRASESVEYYGTSLMQWYQQKPGQPPKLLIYAASNVESGVPARFSGSGSGTDFSLNIHPVEEDDIAMYFCQQSRKVPYTFGGGTKLEIKTGDYKDDDDKHHHHHH
notes: as for B1
Consider B10, for which the binding result is given as “no binding” in assay [1] and “binds” in assay [2].

B11: ME99B1HL (scFv)
scFv: EVQLLEQSGAELVRPGTSVKISCKATGYTFSNYWISWVKYRPGHGLEWIGDIYPGGSYTNYNEKFKGKVTLTADTSSRTAYMQLSGLTFEDSAIYYCARSGYDYGSDYDYHGMDYWGQGTTVTVSSGGGGSGGGGSGGGGSELQMTQSPASLSASVGETVTITCRASENIYSNLAWYQQKQGKSPQLLVYAATNLADGVPSRFSGSRSGSDYSLTISSLESEDFVDYYCLQYASYPYTFGGGTKLEIKTGDYKDDDDKHHHHHH
notes: as for B1
As to B11, in assay [1], the binding result was “no binding”.
